Results taken from US20250109187A1 (NOVAVAX, published 2025).

What was measured:
[1] = target: T1, XBB.1.16 rS (SARS-CoV-2 variant XBB.1.16, UniProt P0DTC2 14-1273); test: ELISA: rS coated, mAb titrated, anti-mouse HRP
[2] = target: T2, SARS-CoV-2 Omicron XBB.1.5 rS (SARS-CoV-2 variant XBB.1.5, UniProt P0DTC2 14-1273); test: ELISA: rS coated, mAb titrated, anti-mouse HRP
T2 construct: also called XBB 1.5 rS glycoprotein; XBB.1.5 Spike trimer

[3] = target: T3, XBB.2.3 rS (SARS-CoV-2 variant XBB.2.3, UniProt P0DTC2 14-1273); test: ELISA: rS coated, mAb titrated, anti-mouse HRP
[4] = target: T4, XBB.1.16.6 rS (SARS-CoV-2 variant XBB.1.16.6, UniProt P0DTC2 14-1273); test: ELISA: rS coated, mAb titrated, anti-mouse HRP
[5] = target: T5, EG.5.1 rS (SARS-CoV-2 variant EG.5.1, UniProt P0DTC2 14-1273); test: ELISA: rS coated, mAb titrated, anti-mouse HRP
[6] = target: T6, FL.1.5.1 rS (SARS-CoV-2 variant FL.1.5.1, UniProt P0DTC2 14-1273); test: ELISA: rS coated, mAb titrated, anti-mouse HRP
[7] = target: T1, XBB.1.16 rS
[8] = target: T2, SARS-CoV-2 Omicron XBB.1.5 rS
[9] = target: T3, XBB.2.3 rS
[10] = target: T4, XBB.1.16.6 rS
[11] = target: T5, EG.5.1 rS
[12] = target: T6, FL.1.5.1 rS

B1: NVX.62.12 (antibody, V domains shown)
VH: QVQLQQSGAELVRPGVSVKISCKGSGYTFTDYAMHWVKQSHAKSLEWIGVISTYSGDAYYNQKFKGKATVTVDKSSSTAYMELARLTSEDSAIYFCARNWDDYYAMDYWGQGTSVTVSS
VL: QIILSQSPAILSASPGERVTMTCRATSSVSYMHWYRQKPGSSPQPWIYATSNLASGVPARFSGSGSGTSYSLTISRVEAEDAATYYCQQWSGNPWTFGGGTKLEIK
notes: also called mAb NVX.62.12
EC50 [1]: 0.044 µg/mL | EC50 [2]: 0.056 µg/mL | EC50 [3]: 0.067 µg/mL | EC50 [4]: 0.063 µg/mL | EC50 [5]: 0.029 µg/mL | EC50 [6]: 0.021 µg/mL | IC50 [7]: > 3 µg/mL | IC50 [8]: > 3 µg/mL | IC50 [9]: > 3 µg/mL | IC50 [10]: > 3 µg/mL | IC50 [11]: > 3 µg/mL | IC50 [12]: > 3 µg/mL

B2: NVX.324.6 (antibody, V domains shown)
VH: EVQLQQSGPELGKPGTSMKISCKASGYSFTGYTMNWVKQSHGKNLEWIGLINPYNGGTSYNQKFKDKATLTVDKSSSTAYMELLSLTSEDSAVYYCVREHYYYDSGYGGYYAMDYWGQGTSVTVSS
VL: QIVLSQSPAILSASPGDKVTMTCRASASVNYMYWYQQKPGSSPKPWIYATSNLASGVPARFSGSGSGTSYSLTISRVEAEDAAIYYCQQWSSNPYTFGGGTKLEIK
notes: also called mAb NVX.324.6
EC50 [1]: 0.027 µg/mL | EC50 [2]: 0.03 µg/mL | EC50 [3]: 0.028 µg/mL | EC50 [4]: 0.021 µg/mL | EC50 [5]: 0.018 µg/mL | EC50 [6]: 0.014 µg/mL | IC50 [7]: > 3 µg/mL | IC50 [8]: > 3 µg/mL | IC50 [9]: > 3 µg/mL | IC50 [10]: > 3 µg/mL | IC50 [11]: > 3 µg/mL | IC50 [12]: > 3 µg/mL
